Laboratory results as given in publication PMC3928423, “RRP6 from Trypanosoma brucei: Crystal Structure of the Catalytic Domain, Association with EAP3 and Activity towards Structured and Non-Structured RNA Substrates” (PLoS ONE, 2014).

Experiments:
[1] = target: TbEAP3ΔC2 (residues 1 to 144) (Trypanosoma brucei); test: SEC-MALS; under reducing condition (10 mM DTT); data not shown
[2] = target: TbRRP6ΔC (residues 20 to 540) (Trypanosoma brucei) (UniProt Q95Z10); test: SEC-MALS; HPLC (Shimadzu), Shodex KW-804 or KW-803 column, proteins at 5 mg/mL in 50 mM Tris-HCl pH 7.5, 500 mM NaCl, 5% glycerol, 0.5 mL/min; miniDAWN TREOS
[3] = target: TbEAP3ΔC2 (residues 1 to 144) (Trypanosoma brucei); test: as above
[4] = target: the molecule itself; test: as above
TbEAP3ΔC1 = target: T1, TbEAP3ΔC1 (Trypanosoma brucei, UniProt Q582G1 1-183); test: EMSA; 5 mM MnCl2; protein 5-50 uM; 10 mM Tris-HCl pH 8.0, 10 mM DTT, 25 mM KCl, 5 mM MnCl2; 50 nM oligonucleotide; 5, 10 or 50 uM protein; 30 min on ice; native 6% gel, 0.25x TBE, 0.5% glycerol; conditions: protein: recombinant, tags: pET21a, chain copies: 2
T1 sequence: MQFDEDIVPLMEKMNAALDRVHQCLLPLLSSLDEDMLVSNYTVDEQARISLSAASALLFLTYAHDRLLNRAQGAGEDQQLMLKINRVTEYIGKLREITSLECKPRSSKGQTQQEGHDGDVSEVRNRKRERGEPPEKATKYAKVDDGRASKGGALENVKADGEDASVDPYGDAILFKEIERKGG

TbEAP3ΔC2 = target: T2, TbEAP3ΔC2 (Trypanosoma brucei, UniProt Q582G1 1-144); test: as above; conditions: protein: recombinant, tags: pET21a, chain copies: 2
T2 sequence: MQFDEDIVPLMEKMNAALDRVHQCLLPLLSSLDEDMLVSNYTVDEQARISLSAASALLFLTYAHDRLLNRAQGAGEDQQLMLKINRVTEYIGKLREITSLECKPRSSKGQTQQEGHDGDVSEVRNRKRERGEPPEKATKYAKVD

[5] = label: 5'-FAM on strand 1, blunt
[6] = label: 5'-FAM, hairpin with 20 nt 3' extension

TbEAP3ΔC2 (residues 1 to 144) (domain or fragment)
stoichiometry N [1]: 2 | stoichiometry N [2]: 1 | stoichiometry N [3]: 2

B1: TbEAP3ΔC1 (residues 1 to 183) (domain or fragment, Trypanosoma brucei, UniProt Q582G1 1-183, looked up)
chain: MQFDEDIVPLMEKMNAALDRVHQCLLPLLSSLDEDMLVSNYTVDEQARISLSAASALLFLTYAHDRLLNRAQGAGEDQQLMLKINRVTEYIGKLREITSLECKPRSSKGQTQQEGHDGDVSEVRNRKRERGEPPEKATKYAKVDDGRASKGGALENVKADGEDASVDPYGDAILFKEIERKGG
notes: TbEAP3, Trypanosoma brucei, gene Tb927.7.5460, residues 1-183 (C-terminal truncation); one copy in the heterodimer with TbRRP6ΔC; source: E. coli C3022 (pET21a), purified (His-Trap, Superdex 200, mono Q); also co-expressed with TbRRP6ΔC and co-purified
stoichiometry N [4]: 2 | stoichiometry N [2]: 1

CCAAAAAAAAAAAAACCACUCACUCACUCA (ssRNA) [ssRNA]
binding result (TbEAP3ΔC1; label: 5'-FAM, single strand): no binding | binding result (TbEAP3ΔC2; label: 5'-FAM, single strand): no binding

B2: dsRNA (dsRNA)
RNA 1: CCAAAAAAAAAAAAACCACUCACUCACUCA
RNA 2: UGAGUGAGUGAGUGGUUUUUUUUUUUUUGG
binding result (TbEAP3ΔC1; [5]): no binding | binding result (TbEAP3ΔC2; [5]): no binding

CCAAAAAAAAAAAAACCACTCACTCACTCA (ssDNA) [ssDNA]
binding result (TbEAP3ΔC1; label: 5'-FAM, single strand): no binding | binding result (TbEAP3ΔC2; label: 5'-FAM, single strand): no binding

B3: dsDNA (dsDNA)
DNA 1: CCAAAAAAAAAAAAACCACTCACTCACTCA
DNA 2: TGAGTGAGTGAGTGGTTTTTTTTTTTTTGG
binding result (TbEAP3ΔC1; [5]): no binding | binding result (TbEAP3ΔC2; [5]): no binding

AUUUAUUUAGGGCGGGCGCAAGCCCGCCCUAUUUAUUAUUUAUUAUUUA (structured_RNA) [GNRA20]
binding result (TbEAP3ΔC1; [6]): no binding | binding result (TbEAP3ΔC2; [6]): no binding
